According to publication PMC5720721, “A thermal after-effect of UV irradiation of muscle glycogen phosphorylase b” (PLoS ONE, 2017):

Target: the molecule itself
Experiment: AUC; sedimentation velocity; native Phb and UV-Phb 0.75 mg/ml; 0.03 M Hepes, pH 6.8, 0.1 M NaCl; 20°C; rotor speed 52000 rpm; growing time (dose) of UV irradiation

B1: glycogen phosphorylase b from rabbit skeletal muscle (enzyme, UniProt P00489 1-843, looked up)
chain: MSRPLSDQEKRKQISVRGLAGVENVTELKKNFNRHLHFTLVKDRNVATPRDYYFALAHTVRDHLVGRWIRTQQHYYEKDPKRIYYLSLEFYMGRTLQNTMVNLALENACDEATYQLGLDMEELEEIEEDAGLGNGGLGRLAACFLDSMATLGLAAYGYGIRYEFGIFNQKICGGWQMEEADDWLRYGNPWEKARPEFTLPVHFYGRVEHTSQGAKWVDTQVVLAMPYDTPVPGYRNNVVNTMRLWSAKAPNDFNLKDFNVGGYIQAVLDRNLAENISRVLYPNDNFFEGKELRLKQEYFVVAATLQDIIRRFKSSKFGCRDPVRTNFDAFPDKVAIQLNDTHPSLAIPELMRVLVDLERLDWDKAWEVTVKTCAYTNHTVLPEALERWPVHLLETLLPRHLQIIYEINQRFLNRVAAAFPGDVDRLRRMSLVEEGAVKRINMAHLCIAGSHAVNGVARIHSEILKKTIFKDFYELEPHKFQNKTNGITPRRWLVLCNPGLAEIIAERIGEEYISDLDQLRKLLSYVDDEAFIRDVAKVKQENKLKFAAYLEREYKVHINPNSLFDVQVKRIHEYKRQLLNCLHVITLYNRIKKEPNKFVVPRTVMIGGKAAPGYHMAKMIIKLITAIGDVVNHDPVVGDRLRVIFLENYRVSLAEKVIPAADLSEQISTAGTEASGTGNMKFMLNGALTIGTMDGANVEMAEEAGEENFFIFGMRVEDVDRLDQRGYNAQEYYDRIPELRQIIEQLSSGFFSPKQPDLFKDIVNMLMHHDRFKVFADYEEYVKCQERVSALYKNPREWTRMVIRNIATSGKFSSDRTIAQYAREIWGVEPSRQRLPAPDEKIP
notes: glycogen phosphorylase b, muscle form, rabbit skeletal muscle; Mr of the dimer printed as 194800 Da; also called Phb; intact Phb; source: purified from rabbit skeletal muscle
In the case of B1, the “stoichiometry N” value is reported as 2.
